Among the data in patent US12097241B2, “Methods of treating kidney failure, and/or improving or stablizing renal function using modified relaxin polypeptides” (BRISTOL-MYERS SQUIBB COMPANY, priority 2017, dated 2024) are EC50, AUC(0-inf) and level values, retold here.

Where two headings read alike, the source gives them in different places.

Series [1] addresses T1, human RXFP1 receptor (Homo sapiens, UniProt Q9HBX9).
T1 construct: expressed in transfected cells
T1 sequence (Q9HBX9 1-757): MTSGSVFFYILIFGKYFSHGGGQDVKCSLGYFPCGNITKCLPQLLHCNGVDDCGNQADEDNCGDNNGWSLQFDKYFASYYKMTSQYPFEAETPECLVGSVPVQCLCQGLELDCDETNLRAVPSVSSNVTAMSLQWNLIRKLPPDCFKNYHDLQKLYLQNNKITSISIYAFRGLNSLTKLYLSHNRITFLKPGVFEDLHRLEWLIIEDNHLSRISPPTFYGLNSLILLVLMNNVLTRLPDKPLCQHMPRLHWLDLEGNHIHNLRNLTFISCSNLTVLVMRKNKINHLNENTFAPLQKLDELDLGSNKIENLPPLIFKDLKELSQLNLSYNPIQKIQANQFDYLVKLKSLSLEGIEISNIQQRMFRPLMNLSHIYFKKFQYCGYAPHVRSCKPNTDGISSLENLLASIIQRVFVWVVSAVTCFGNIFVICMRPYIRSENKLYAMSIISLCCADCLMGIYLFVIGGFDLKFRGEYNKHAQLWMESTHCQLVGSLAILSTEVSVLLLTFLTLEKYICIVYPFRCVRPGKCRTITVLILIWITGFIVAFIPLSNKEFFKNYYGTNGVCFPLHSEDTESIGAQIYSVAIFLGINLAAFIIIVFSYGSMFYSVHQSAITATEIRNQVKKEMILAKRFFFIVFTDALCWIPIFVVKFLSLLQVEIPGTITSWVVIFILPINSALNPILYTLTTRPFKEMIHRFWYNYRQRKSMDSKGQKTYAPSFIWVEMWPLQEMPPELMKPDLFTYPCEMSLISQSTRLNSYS
The series is described as follows: Intracellular cAMP accumulation assay. It is filed as cell-based. For orientation: Changes in cAMP serve as a functional read-out for many G protein-coupled receptors.

Series [2] is described as follows: In vivo pharmacokinetic (PK) studies in rats. More on the design: species or system Sprague-Dawley rats. The conditions noted are these: rat, male Sprague-Dawley rats, single SC dose 1.0 mg/kg, serum ELISA; for AUC(0-inf): read-out: Rat PK AUC Total; for level at time molar at 24 h: read-out: Rat PK C24. The procedure:
[…] Blood samples were collected via jugular vein at different time points out to 72 hours. Blood samples were allowed to coagulate at room temperature (30-60 m) and then centrifuged (1500-2000) at 4° C. to obtain serum. After centrifugation serum samples were transferred to 96 well plates and stored at −80° C. until bioanalysis. Relaxin concentrations were measured from serum by ELISA.
Relaxin concentration-time profiles from individual animals were used for analysis. Pharmacokinetic parameters were calculated by non-compartmental methods using Phoenix WinNonlin (version 6.4) or Kinetica (version 5). Mean pharmacokinetic parameters Cmax, AUCinf, C24 and half-life were reported (Table 4). Table 4. In vivo PK data (abbreviations as in Table 3).
(An ELISA detects its analyte on a solid surface through an enzyme-linked reagent.)

The mark [3] stands for this setting: CHO-K1 cells stably expressing human RXFP1, 10 min at 37° C., HTRF cAMP, average, read-out: hRXFP1/CHO-K1 cAMP EC50 (nM, avg).

In the case of `CCCCCCCCCCCCCC(=O)N[C@@H](CCC(=O)NCC(=O)NCC(=O)NCC(=O)N[C@@H](CCC(=O)O)C(=O)N[C@@H](CCC(=O)O)C(=O)N[C@@H](CCC(=O)O)C(=O)NCCON=C(C)c1ccc(C[C@H](N)C(=O)N[C@@H](CC(C)C)C(=O)N[C@@H](Cc2ccc(O)cc2)C(=O)N[C@@H](CO)C(=O)N[C@@H](C)C(=O)N[C@@H](CC(C)C)C(=O)N[C@@H](C)C(=O)N[C@@H](CC(N)=O)C(=O)N[C@@H](CCCCN)C(=O)N[C@H]2CSSC[C@@H]3NC(=O)CNC(=O)[C@H](C(C)C)NC(=O)[C@H](Cc4c[nH]cn4)NC(=O)[C@H](CSSC[C@H](NC(=O)[C@H](CC(C)C)NC(=O)[C@H](CCCCN)NC(=O)[C@@H](NC(=O)[C@@H](NC(=O)[C@H](CCC(=O)O)NC(=O)[C@H](CCC(=O)O)NC(=O)[C@H](CCSC)NC(=O)[C@H](Cc4c[nH]c5ccccc45)NC(=O)[C@H](CO)NC(=O)[C@H](C)N)C(C)C)[C@@H](C)CC)C(=O)NCC(=O)N[C@@H](CCCNC(=N)N)C(=O)N[C@@H](CCC(=O)O)C(=O)N[C@@H](CC(C)C)C(=O)N[C@@H](C(C)C)C(=O)N[C@@H](CCCNC(=N)N)C(=O)N[C@@H](C)C(=O)N[C@@H](CCC(N)=O)C(=O)N[C@@H]([C@@H](C)CC)C(=O)N[C@@H](C)C(=O)N[C@@H]([C@@H](C)CC)C(=O)N[C@H](C(=O)NCC(=O)N[C@@H](CCSC)C(=O)N[C@@H](CO)C(=O)N[C@H](C(=O)N[C@@H](Cc4c[nH]c5ccccc45)C(=O)N[C@@H](CO)C(=O)O)[C@@H](C)O)CSSC[C@@H](C(=O)O)NC(=O)[C@H](Cc4ccccc4)NC(=O)[C@H](CCCNC(=N)N)NC(=O)[C@H](C)NC(=O)[C@H](CC(C)C)NC(=O)[C@H](CO)NC(=O)[C@H](CCCNC(=N)N)NC(=O)[C@H](CCCCN)NC(=O)[C@H]([C@@H](C)O)NC3=O)NC2=O)cc1)C(=O)O` [AQ1-EEEGGG-Glu^γ-C13-CH3], in series [1] (setting [3]), the EC50 was determined as 0.38 nM. In addition, in series [2], the AUC(0-inf) was found to be 0.274 µM·h and the level at time molar at 24 h amounted to 0.4 nM.
For the molecule `CC[C@H](C)[C@@H]1NC(=O)[C@H](C)NC(=O)[C@H]([C@@H](C)CC)NC(=O)[C@H](CCC(N)=O)NC(=O)[C@H](C)NC(=O)[C@H](CCCNC(=N)N)NC(=O)[C@H](C(C)C)NC(=O)[C@H](CC(C)C)NC(=O)[C@H](CCC(=O)O)NC(=O)[C@H](CCCNC(=N)N)NC(=O)CNC(=O)[C@@H](NC(=O)[C@H](CC(C)C)NC(=O)[C@H](CCCCN)NC(=O)[C@@H](NC(=O)[C@@H](NC(=O)[C@H](CCC(=O)O)NC(=O)[C@H](CCC(=O)O)NC(=O)[C@H](CCSC)NC(=O)[C@H](Cc2c[nH]c3ccccc23)NC(=O)[C@H](CO)NC(=O)[C@H](C)N)C(C)C)[C@@H](C)CC)CSSC[C@@H]2NC(=O)[C@@H](NC(=O)[C@H](CCCCN)NC(=O)[C@H](CC(N)=O)NC(=O)[C@H](C)NC(=O)[C@H](CC(C)C)NC(=O)[C@H](C)NC(=O)[C@H](CO)NC(=O)[C@H](Cc3ccc(O)cc3)NC(=O)[C@H](CC(C)C)NC(=O)[C@@H](N)Cc3ccc(C(C)=NOCCNC(=O)[C@H](CCCNC(=N)N)NC(=O)CNC(=O)CNC(=O)[C@H](CCC(=O)O)NC(=O)[C@H](CCC(=O)O)NC(=O)[C@H](CCCCN)NC(=O)[C@H](CCCCN)NC(=O)[C@H](CCCCN)NC(=O)[C@H](CCC(=O)O)NC(=O)[C@H](CCCCN)NC(=O)[C@H](CCC(=O)O)NC(=O)[C@H](CCCCN)NC(=O)CC[C@H](NC(=O)CCCCCCCCCCCCC(=O)O)C(=O)O)cc3)CSSC[C@H](NC(=O)CNC(=O)[C@H](C(C)C)NC(=O)[C@H](Cc3c[nH]cn3)NC2=O)C(=O)N[C@@H]([C@@H](C)O)C(=O)N[C@@H](CCCCN)C(=O)N[C@@H](CCCNC(=N)N)C(=O)N[C@@H](CO)C(=O)N[C@@H](CC(C)C)C(=O)N[C@@H](C)C(=O)N[C@@H](CCCNC(=N)N)C(=O)N[C@@H](Cc2ccccc2)C(=O)N[C@H](C(=O)O)CSSC[C@@H](C(=O)NCC(=O)N[C@@H](CCSC)C(=O)N[C@@H](CO)C(=O)N[C@H](C(=O)N[C@@H](Cc2c[nH]c3ccccc23)C(=O)N[C@@H](CO)C(=O)O)[C@@H](C)O)NC1=O` [AQ1-RGGEEKKKEKEK-Glu^γ-C13-COOH], the EC50 in series [1] (setting [3]) was 0.29 nM. Also, in series [2], the AUC(0-inf) is 0.987 µM·h and the level at time molar at 24 h was determined as 0.1 nM.
Turning to `CC[C@H](C)[C@@H]1NC(=O)[C@H](C)NC(=O)[C@H]([C@@H](C)CC)NC(=O)[C@H](CCC(N)=O)NC(=O)[C@H](C)NC(=O)[C@H](CCCNC(=N)N)NC(=O)[C@H](C(C)C)NC(=O)[C@H](CC(C)C)NC(=O)[C@H](CCC(=O)O)NC(=O)[C@H](CCCNC(=N)N)NC(=O)CNC(=O)[C@@H](NC(=O)[C@H](CC(C)C)NC(=O)[C@H](CCCCN)NC(=O)[C@@H](NC(=O)[C@@H](NC(=O)[C@H](CCC(=O)O)NC(=O)[C@H](CCC(=O)O)NC(=O)[C@H](CCSC)NC(=O)[C@H](Cc2c[nH]c3ccccc23)NC(=O)[C@H](CO)NC(=O)[C@H](C)N)C(C)C)[C@@H](C)CC)CSSC[C@@H]2NC(=O)[C@@H](NC(=O)[C@H](CCCCN)NC(=O)[C@H](CC(N)=O)NC(=O)[C@H](C)NC(=O)[C@H](CC(C)C)NC(=O)[C@H](C)NC(=O)[C@H](CO)NC(=O)[C@H](Cc3ccc(O)cc3)NC(=O)[C@H](CC(C)C)NC(=O)[C@@H](N)Cc3ccc(C(C)=NOCCNC(=O)[C@H](CCCCN)NC(=O)[C@H](CCCCN)NC(=O)[C@H](CO)NC(=O)CNC(=O)CNC(=O)[C@H](CO)NC(=O)CNC(=O)CNC(=O)[C@H](CCC(=O)O)NC(=O)[C@H](CCC(=O)O)NC(=O)CC[C@H](NC(=O)CCCCCCCCCCCCC(=O)O)C(=O)O)cc3)CSSC[C@H](NC(=O)CNC(=O)[C@H](C(C)C)NC(=O)[C@H](Cc3c[nH]cn3)NC2=O)C(=O)N[C@@H]([C@@H](C)O)C(=O)N[C@@H](CCCCN)C(=O)N[C@@H](CCCNC(=N)N)C(=O)N[C@@H](CO)C(=O)N[C@@H](CC(C)C)C(=O)N[C@@H](C)C(=O)N[C@@H](CCCNC(=N)N)C(=O)N[C@@H](Cc2ccccc2)C(=O)N[C@H](C(=O)O)CSSC[C@@H](C(=O)NCC(=O)N[C@@H](CCSC)C(=O)N[C@@H](CO)C(=O)N[C@H](C(=O)N[C@@H](Cc2c[nH]c3ccccc23)C(=O)N[C@@H](CO)C(=O)O)[C@@H](C)O)NC1=O` [AQ1-KKSGGSGGEE-Glu^γ-C13-COOH], the EC50 in series [1] is 0.16 nM. In series [2], the AUC(0-inf) worked out at 0.676 µM·h and the level at time molar at 24 h stood at 0.09 nM.
`CC[C@H](C)[C@@H]1NC(=O)[C@H](C)NC(=O)[C@H]([C@@H](C)CC)NC(=O)[C@H](CCC(N)=O)NC(=O)[C@H](C)NC(=O)[C@H](CCCNC(=N)N)NC(=O)[C@H](C(C)C)NC(=O)[C@H](CC(C)C)NC(=O)[C@H](CCC(=O)O)NC(=O)[C@H](CCCNC(=N)N)NC(=O)CNC(=O)[C@@H](NC(=O)[C@H](CC(C)C)NC(=O)[C@H](CCCCN)NC(=O)[C@@H](NC(=O)[C@@H](NC(=O)[C@H](CCC(=O)O)NC(=O)[C@H](CCC(=O)O)NC(=O)[C@H](CCSC)NC(=O)[C@H](Cc2c[nH]c3ccccc23)NC(=O)[C@H](CO)NC(=O)[C@H](C)N)C(C)C)[C@@H](C)CC)CSSC[C@@H]2NC(=O)[C@@H](NC(=O)[C@H](CCCCN)NC(=O)[C@H](CC(N)=O)NC(=O)[C@H](C)NC(=O)[C@H](CC(C)C)NC(=O)[C@H](C)NC(=O)[C@H](CO)NC(=O)[C@H](Cc3ccc(O)cc3)NC(=O)[C@H](CC(C)C)NC(=O)[C@@H](N)Cc3ccc(C(C)=NOCCNC(=O)[C@H](CCC(=O)O)NC(=O)CNC(=O)CNC(=O)CNC(=O)CNC(=O)[C@H](CO)NC(=O)[C@H](CCCCN)NC(=O)CC[C@H](NC(=O)CCCCCCCCCCCCC(=O)O)C(=O)O)cc3)CSSC[C@H](NC(=O)CNC(=O)[C@H](C(C)C)NC(=O)[C@H](Cc3c[nH]cn3)NC2=O)C(=O)N[C@@H]([C@@H](C)O)C(=O)N[C@@H](CCCCN)C(=O)N[C@@H](CCCNC(=N)N)C(=O)N[C@@H](CO)C(=O)N[C@@H](CC(C)C)C(=O)N[C@@H](C)C(=O)N[C@@H](CCCNC(=N)N)C(=O)N[C@@H](Cc2ccccc2)C(=O)N[C@H](C(=O)O)CSSC[C@@H](C(=O)NCC(=O)N[C@@H](CCSC)C(=O)N[C@@H](CO)C(=O)N[C@H](C(=O)N[C@@H](Cc2c[nH]c3ccccc23)C(=O)N[C@@H](CO)C(=O)O)[C@@H](C)O)NC1=O` [AQ1-EGGGGSK-Glu^γ-C13-COOH] returned an EC50 in series [1] of 0.31 nM.
